Values quoted from earlier work as cited in paper PMC8979592.
pKd: −log10 of the molar value.

Molecular target: clathrin (UniProt Q00610)

In the case of clathrin (from UniProt Q00610), the pKd is given as 3.92.
